Reference: the supplement of paper PMC5998384

How the values were obtained:
[1] = system: HeLa Kyoto; assay: solubility in G1/S (NP-40 vs SDS abundance) (log2 ratio); higher = more soluble; conditions: cell cycle stage: G1/S
[2] = system: HeLa Kyoto; assay: melting temperature (median over replicates), in situ; higher = more thermally stable
[3] = system: HeLa Kyoto; assay: solubility change mitosis vs G1/S (difference of NP-40 vs SDS log2 ratios) (log2 ratio difference); higher = more soluble in mitosis
[4] = system: HeLa Kyoto; assay: thermal stability score vs G1/S (z-score of summed log2 fold changes over temperatures); higher = more thermally stable than in G1/S
[5] = cell cycle stage: early G1 (4.5 h after nocodazole release)
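Throughout, for melting temperature (median over replicates), in situ: HeLa Kyoto cells synchronized by double thymidine or nocodazole block, proteins quantified by TMT10plex mass spectrometry, three independent biological replicates.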
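Throughout, for solubility change mitosis vs G1/S (difference of NP-40 vs SDS log2 ratios): synchronized HeLa Kyoto cells (double thymidine block for G1/S, nocodazole release for mitosis), protein amounts in NP-40 versus SDS lysates quantified by mass spectrometry, three biological replicates.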
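Throughout, for solubility in G1/S (NP-40 vs SDS abundance): HeLa Kyoto cells arrested at G1/S by double thymidine block, proteins quantified by TMT10plex mass spectrometry in mild NP-40 versus SDS extracts, three biological replicates.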
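Throughout, for thermal stability score vs G1/S (z-score of summed log2 fold changes over temperatures): synchronized HeLa Kyoto cells, proteins quantified by TMT10plex mass spectrometry, three biological replicates, mitosis taken 0.5 h after nocodazole release, G1/S directly after double thymidine block.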

Sequence | solubility in G1/S (log2) [1] | melting temperature ([2]; cell cycle stage: G1/S) [°C] | melting temperature ([2]; cell cycle stage: mitosis) [°C] | solubility change mitosis (log2) [3] | thermal stability score [4, 5] | thermal stability score ([4]; cell cycle stage: mitosis)
MSGGASATGPRRGPPGLEDTTSKKKQKDRANQESKDGDPRKETGSRYVAQAGLEPLASGDPSASASHAAGITGSRHRTRLFFPSSSGSASTPQEEQTKEGACEDPHDLLATPTPELLLDWRQSAEEVIVKLRVGVGPLQLEDVDAAFTDTDCVVRFAGGQQWGGVFYAEIKSSCAKVQTRKGSLLHLTLPKKVPMLTWPSLLVEADEQLCIPPLNSQTCLLGSEENLAPLAGEKAVPPGNDPVSPAMVRSRNPGKDDCAKEEMAVAADAATLVDEPESMVNLAFVKNDSYEKGPDSVVVHVYVKEICRDTSRVLFREQDFTLIFQTRDGNFLRLHPGCGPHTTFRWQVKLRNLIEPEQCTFCFTASRIDICLRKRQSQRWGGLEAPAARVGGAKVAVPTGPTPLDSTPPGGAPHPLTGQEEARAVEKDKSKARSEDTGLDSVATRTPMEHVTPKPETHLASPKPTCMVPPMPHSPVSGDSVEEEEEEEKKVCLPGFTGLVNLGNTCFMNSVIQSLSNTRELRDFFHDRSFEAEINYNNPLGTGGRLAIGFAVLLRALWKGTHHAFQPSKLKAIVASKASQFTGYAQHDAQEFMAFLLDGLHEDLNRIQNKPYTETVDSDGRPDEVVAEEAWQRHKMRNDSFIVDLFQGQYKSKLVCPVCAKVSITFDPFLYLPVPLPQKQKVLPVFYFAREPHSKPIKFLVSVSKENSTASEVLDSLSQSVHVKPENLRLAEVIKNRFHRVFLPSHSLDTVSPSDTLLCFELLSSELAKERVVVLEVQQRPQVPSVPISKCAACQRKQQSEDEKLKRCTRCYRVGYCNQLCQKTHWPDHKGLCRPENIGYPFLVSVPASRLTYARLAQLLEGYARYSVSVFQPPFQPGRMALESQSPGCTTLLSTGSLEAGDSERDPIQPPELQLVTPMAEGDTGLPRVWAAPDRGPVPSTSGISSEMLASGPIEVGSLPAGERVSRPEAAVPGYQHPSEAMNAHTPQFFIYKIDSSNREQRLEDKGDTPLELGDDCSLALVWRNNERLQEFVLVASKELECAEDPGSAGEAARAGHFTLDQCLNLFTRPEVLAPEEAWYCPQCKQHREASKQLLLWRLPNVLIVQLKRFSFRSFIWRDKINDLVEFPVRNLDLSKFCIGQKEEQLPSYDLYAVINHYGGMIGGHYTACARLPNDRSSQRSDVGWRLFDDSTVTTVDESQVVTRYAYVLFYRRRNSPVERPPRAGHSEHHPDLGPAAEAAASQASRIWQELEAEEEPVPEGSGPLGPWGPQDWVGPLPRGPTTPDEGCLRYFVLGTVAALVALVLNVFYPLVSQSRWR [USP19] | -0.0565 | 51.1 | 51 | -0.0948 | -0.212 | -0.109
MSGGLLKALRSDSYVELSQYRDQHFRGDNEEQEKLLKKSCTLYVGNLSFYTTEEQIYELFSKSGDIKKIIMGLDKMKKTACGFCFVEYYSRADAENAMRYINGTRLDDRIIRTDWDAGFKEGRQYGRGRSGGQVRDEYRQDYDAGRGGYGKLAQNQ [NCBP2] | -0.118 | 51.4 | 51.8 | 0.26 | -0.145 | -1.78
MSGNGNAAATAEENSPKMRVIRVGTRKSQLARIQTDSVVATLKASYPGLQFEIIAMSTTGDKILDTALSKIGEKSLFTKELEHALEKNEVDLVVHSLKDLPTVLPPGFTIGAICKRENPHDAVVFHPKFVGKTLETLPEKSVVGTSSLRRAAQLQRKFPHLEFRSIRGNLNTRLRKLDEQQEFSAIILATAGLQRMGWHNRVGQILHPEECMYAVGQGALGVEVRAKDQDILDLVGVLHDPETLLRCIAERAFLRHLEGGCSVPVAVHTAMKDGQLYLTGGVWSLDGSDSIQETMQATIHVPAQHEDGPEDDPQLVGITARNIPRGPQLAAQNLGISLANLLLSKGAKNILDVARQLNDAH [HMBS] | 0.328 | 57.6 | 57.3 | -0.0671 | -1.68 | -1.79
MSGTNLDGNDEFDEQLRMQELYGDGKDGDTQTDAGGEPDSLGQQPTDTPYEWDLDKKAWFPKITEDFIATYQANYGFSNDGASSSTANVEDVHARTAEEPPQEKAPEPTDARKKGEKRKAESGWFHVEEDRNTNVYVSGLPPDITVDEFIQLMSKFGIIMRDPQTEEFKVKLYKDNQGNLKGDGLCCYLKRESVELALKLLDEDEIRGYKLHVEVAKFQLKGEYDASKKKKKCKDYKKKLSMQQKQLDWRPERRAGPSRMRHERVVIIKNMFHPMDFEDDPLVLNEIREDLRVECSKFGQIRKLLLFDRHPDGVASVSFRDPEEADYCIQTLDGRWFGGRQITAQAWDGTTDYQVEETSREREERLRGWEAFLNAPEANRGLRRSDSVSASERAGPSRARHFSEHPSTSKMNAQETATGMAFEEPIDEKKFEKTEDGGEFEEGASENNAKESSPEKEAEEGCPEKESEEGCPKRGFEGSCSQKESEEGNPVRGSEEDSPKKESKKKTLKNDCEENGLAKESEDDLNKESEEEVGPTKESEEDDSEKESDEDCSEKQSEDGSEREFEENGLEKDLDEEGSEKELHENVLDKELEENDSENSEFEDDGSEKVLDEEGSEREFDEDSDEKEEEEDTYEKVFDDESDEKEDEEYADEKGLEAADKKAEEGDADEKLFEESDDKEDEDADGKEVEDADEKLFEDDDSNEKLFDEEEDSSEKLFDDSDERGTLGGFGSVEEGPLSTGSSFILSSDDDDDDI [HTATSF1] | -0.256 | 47.4 | 49.4 | -0.0715 | 5.21 | 9.34
MSGVRAVRISIESACEKQVHEVGLDGTETYLPPLSMSQNLARLAQRIDFSQGSGSEEEEAAGTEGDAQEWPGAGSSADQDDEEGVVKFQPSLWPWDSVRNNLRSALTEMCVLYDVLSIVRDKKFMTLDPVSQDALPPKQNPQTLQLISKKKSLAGAAQILLKGAERLTKSVTENQENKLQRDFNSELLRLRQHWKLRKVGDKILGDLSYRSAGSLFPHHGTFEVIKNTDLDLDKKIPEDYCPLDVQIPSDLEGSAYIKVSIQKQAPDIGDLGTVNLFKRPLPKSKPGSPHWQTKLEAAQNVLLCKEIFAQLSREAVQIKSQVPHIVVKNQIISQPFPSLQLSISLCHSSNDKKSQKFATEKQCPEDHLYVLEHNLHLLIREFHKQTLSSIMMPHPASAPFGHKRMRLSGPQAFDKNEINSLQSSEGLLEKIIKQAKHIFLRSRAAATIDSLASRIEDPQIQAHWSNINDVYESSVKVLITSQGYEQICKSIQLQLNIGVEQIRVVHRDGRVITLSYQEQELQDFLLSQMSQHQVHAVQQLAKVMGWQVLSFSNHVGLGPIESIGNASAITVASPSGDYAISVRNGPESGSKIMVQFPRNQCKDLPKSDVLQDNKWSHLRGPFKEVQWNKMEGRNFVYKMELLMSALSPCLL [MED17] | 0.0389 | 50.4 | 49.7 | -0.0898 | 0.0203 | 0.644
MSHPDYRMNLRPLGTPRGVSAVAGPHDIGASPGDKKSKNRSTRGKKKSIFETYMSKEDVSEGLKRGTLIQGVLRINPKKFHEAFIPSPDGDRDIFIDGVVARNRALNGDLVVVKLLPEEHWKVVKPESNDKETEAAYESDIPEELCGHHLPQQSLKSYNDSPDVIVEAQFDGSDSEDGHGITQNVLVDGVKKLSVCVSEKGREDGDAPVTKDETTCISQDTRALSEKSLQRSAKVVYILEKKHSRAATGFLKLLADKNSELFRKYALFSPSDHRVPRIYVPLKDCPQDFVARPKDYANTLFICRIVDWKEDCNFALGQLAKSLGQAGEIEPETEGILTEYGVDFSDFSSEVLECLPQGLPWTIPPEEFSKRRDLRKDCIFTIDPSTARDLDDALSCKPLADGNFKVGVHIADVSYFVPEGSDLDKVAAERATSVYLVQKVVPMLPRLLCEELCSLNPMSDKLTFSVIWTLTPEGKILDEWFGRTIIRSCTKLSYEHAQSMIESPTEKIPAKELPPISPEHSSEEVHQAVLNLHGIAKQLRQQRFVDGALRLDQLKLAFTLDHETGLPQGCHIYEYRESNKLVEEFMLLANMAVAHKIHRAFPEQALLRRHPPPQTRMLSDLVEFCDQMGLPVDFSSAGALNKSLTQTFGDDKYSLARKEVLTNMCSRPMQMALYFCSGLLQDPAQFRHYALNVPLYTHFTSPIRRFADVLVHRLLAAALGYRERLDMAPDTLQKQADHCNDRRMASKRVQELSTSLFFAVLVKESGPLESEAMVMGILKQAFDVLVLRYGVQKRIYCNALALRSHHFQKVGKKPELTLVWEPEDMEQEPAQQVITIFSLVEVVLQAESTALKYSAILKRPGTQGHLGPEKEEEESDGEPEDSSTS [DIS3L2] | -0.0925 | 50.6 | 50.5 | -0.1 | -0.153 | -0.198
MSIMSYNGGAVMAMKGKNCVAIAADRRFGIQAQMVTTDFQKIFPMGDRLYIGLAGLATDVQTVAQRLKFRLNLYELKEGRQIKPYTLMSMVANLLYEKRFGPYYTEPVIAGLDPKTFKPFICSLDLIGCPMVTDDFVVSGTCAEQMYGMCESLWEPNMDPDHLFETISQAMLNAVDRDAVSGMGVIVHIIEKDKITTRTLKARMD [PSMB3] | 0.275 | 59.9 | 62.6 | -0.241 | -1.89 | -1.25
MSKGPGPGGSAASSAPPAATAQVLQAQPEKPQHYTYLKEFRTEQCPLFVQHKCTQHRPYTCFHWHFVNQRRRRSIRRRDGTFNYSPDVYCTKYDEATGLCPEGDECPFLHRTTGDTERRYHLRYYKTGICIHETDSKGNCTKNGLHCAFAHGPHDLRSPVYDIRELQAMEALQNGQTTVEGSIEGQSAGAASHAMIEKILSEEPRWQETAYVLGNYKTEPCKKPPRLCRQGYACPYYHNSKDRRRSPRKHKYRSSPCPNVKHGDEWGDPGKCENGDACQYCHTRTEQQFHPEIYKSTKCNDMQQSGSCPRGPFCAFAHVEQPPLSDDLQPSSAVSSPTQPGPVLYMPSAAGDSVPVSPSSPHAPDLSALLCRNSSLGSPSNLCGSPPGSIRKPPNLEGIVFPGESGLAPGSYKKAPGFEREDQVGAEYLKNFKCQAKLKPHSLEPRSQEQPLLQPKQDMLGILPAGSPLTSSISSSITSSLAATPPSPVGTSSVPGMNANALPFYPTSDTVESVIESALDDLDLNEFGVAALEKTFDNSTVPHPGSITIGGSLLQSSAPVNIPGSLGSSASFHSASPSPPVSLSSHFLQQPQGHLSQSENTFLGTSASHGSLGLNGMNSSIWEHFASGSFSPGTSPAFLSGPGAAELARLRQELDEANSTIKQWEESWKQAKQACDAWKKEAEEAGERASAAGAECELAREQRDALEVQVKKLQEELERLHAGPEPQALPAFSDLEALSLSTLYSLQKQLRAHLEQVDKAVFHMQSVKCLKCQEQKRAVLPCQHAALCELCAEGSECPICQPGRAHTLQS [UNK] | 0.0454 | 51 | 50.9 | -0.0731 | 0.349 | 1.68
MSKRHRLDLGEDYPSGKKRAGTDGKDRDRDRDREDRSKDRDRERDRGDREREREKEKEKELRASTNAMLISAGLPPLKASHSAHSTHSAHSTHSTHSAHSTHAGHAGHTSLPQCINPFTNLPHTPRYYDILKKRLQLPVWEYKDRFTDILVRHQSFVLVGETGSGKTTQIPQWCVEYMRSLPGPKRGVACTQPRRVAAMSVAQRVADEMDVMLGQEVGYSIRFEDCSSAKTILKYMTDGMLLREAMNDPLLERYGVIILDEAHERTLATDILMGVLKEVVRQRSDLKVIVMSATLDAGKFQIYFDNCPLLTIPGRTHPVEIFYTPEPERDYLEAAIRTVIQIHMCEEEEGDLLLFLTGQEEIDEACKRIKREVDDLGPEVGDIKIIPLYSTLPPQQQQRIFEPPPPKKQNGAIGRKVVVSTNIAETSLTIDGVVFVIDPGFAKQKVYNPRIRVESLLVTAISKASAQQRAGRAGRTRPGKCFRLYTEKAYKTEMQDNTYPEILRSNLGSVVLQLKKLGIDDLVHFDFMDPPAPETLMRALELLNYLAALNDDGDLTELGSMMAEFPLDPQLAKMVIASCDYNCSNEVLSITAMLSVPQCFVRPTEAKKAADEAKMRFAHIDGDHLTLLNVYHAFKQNHESVQWCYDNFINYRSLMSADNVRQQLSRIMDRFNLPRRSTDFTSRDYYINIRKALVTGYFMQVAHLERTGHYLTVKDNQVVQLHPSTVLDHKPEWVLYNEFVLTTKNYIRTCTDIKPEWLVKIAPQYYDMSNFPQCEAKRQLDRIIAKLQSKEYSQY [DHX15] | -0.42 | 53.9 | 53.7 | 0.272 | 0.104 | 1.61
